The target in the experiment is T1, recombinant human HER3/Fc chimera (R&D Systems, #348-RB-050) (human, UniProt P21860 20-643).
T1 construct: Bought reagent; Biotinylated for flow cytometry, unlabelled for dot blot, ELISA and SPR; also called biotinylated HER3-Fc; not shown: human IgG Fc-region
Briefly: SPR, 2.5 nM HER3-Fc alone injected over immobilised heregulin. A general note: Surface plasmon resonance follows binding to a sensor surface in real time, without labels.

B1: heregulin (HRG1-β1, EGF-like domain, R&D Systems) (ligand, human, UniProt Q02297-6 177-241, looked up)
chain: SHLVKCAEKEKTFCVNGGECFMVKDLSNPSRYLCKCPNEFTGDRCQNYVMASFYKHLGIEFMEAE
notes: domain: EGF-like domain; also called human heregulin; HRG1-β, 396-HB
Consider B1, for which the binding result is recorded as “binds”.

Source of the values: patent US20120270801A1 (Affibody, published 2012).
